Data on one molecule can be found in patent publication EP4559472A1 (Universität Ulm, dated 2025).

This experiment concerns the target T1, Biotinylated C4d (UniProt P0C0L4 957-1336, limits assumed, biotinylated (thioester moiety; NHS-PEG4-Biotin Kit)).
T1 construct: domain: C4d; also called C4d (biotinylated, on streptavidin sensor chip)
T1 sequence (looked up): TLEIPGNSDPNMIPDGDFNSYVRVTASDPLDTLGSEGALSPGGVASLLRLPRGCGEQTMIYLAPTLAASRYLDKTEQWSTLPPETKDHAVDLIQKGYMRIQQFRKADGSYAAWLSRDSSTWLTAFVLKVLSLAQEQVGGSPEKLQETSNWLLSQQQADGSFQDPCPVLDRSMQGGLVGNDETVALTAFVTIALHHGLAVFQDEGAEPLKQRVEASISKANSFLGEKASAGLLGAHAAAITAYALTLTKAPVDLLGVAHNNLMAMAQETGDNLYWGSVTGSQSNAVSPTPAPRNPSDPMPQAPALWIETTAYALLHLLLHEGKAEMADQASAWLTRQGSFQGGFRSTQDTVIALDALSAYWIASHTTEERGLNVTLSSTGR
Briefly: SPR, biotinylated C4d on streptavidin chip.

B1: FH(15-18) (other, human, UniProt P08603 868-1104, looked up)
chain: IPCSQPPQIEHGTINSSRSSQESYAHGTKLSYTCEGGFRISEENETTCYMGKWSSPPQCEGLPCKSPPEISHGVVAHMSDSYQYGEEVTYKCFEGFGIDGPAIAKCLGEKWSHPPSCIKTDCLSLPSFENAIPMGEKKDVYKAGEQVTYTCATYYKMDGASNVTCINSRWTGRPTCRDTSCVNPPTVQNAYIVSRQMSKYPSGERVRYQCRSPYEMFGDEEVMCLNGNWTEPPQCKD
notes: domain: protein domains 15-18; Control protein; also called protein domains 15-18 of FH
For the molecule B1, the binding result is reported as “no binding”.
